The values that follow come from patent US7256321B2, “Intracellular modulators of apoptopic cell death pathways” (Applied Research Systems ARS Holding N.V., priority 1997, dated 2007).

Common to all, as to assay type: cell-based, mouse
In experiment [1] the test system is Fas/Fas-L expression on 3DO transfected clones. Description: Fas and Fas-L expression on 3DO transfected clones (flow cytometry). Conditions: GILR expression in transfected 3DO clones. The method, then: Hamster anti-mouse CD3ε (clone 145-2C11; Pharmingen, San Diego, Calif.) mAb at 1 μg/well (=1 μg/ml of anti-CD3 antibody) was allowed to adhere to flat-bottomed, high-binding 96-well plates (Costar, Cambridge, Mass.) at 4° C. in 100 μl PBS. After 20 hours, plates coated with mAb were washed and transfected clones were plated at 1×10^5 cells/well and incubated at 37° C. for 20 hours. Isotype-matched rat anti-mouse IgG 2b mAbs (clone R 35-38, Pharmingen) were used a control.
A single suspension (1×10^6cells/sample) was incubated for 30 minutes on ice in 50 μl staining buffer (PBS plus 5% FCS), containing 10 μg/ml hamster anti-mouse Fas mAb directly conjugated to R-phycoerythrin (PE) or PE-hamster IgG (isotype control).
Both mAbs were purchased from Pharmingen. Cells were also stained with rabbit polyclonal antibody raised against a peptide corresponding to amino acids 260-279 mapping at the carboxy terminus of human Fas-L (Santa Cruz Biotechnology, Inc., Santa Cruz, Calif.) or with isotype-matched antibody (ab), and with anti-rabbit IgG FITC conjugate, F(ab′)2 fragment (Sigma), as a second step reagent.
All clones were stained with hamster anti-mouse αCD3, directly conjugated with fluorescein (Pharmingen). The median or percentage of Fas and Fas-L histograms was calculated using lysis II research software (Becton-Dickinson, Mountain View, U.S.A.).

Experiment [2] deals with 3DO transfected clones. Description: Apoptosis induced by other stimuli on 3DO transfected clones. Conditions: GILR overexpression in 3DO clones GILR/1,5,7 vs pcDNA3/4,7,8, 20 hours. The protocol: FIGS. 7A-7D are bar-graph representations of the results of the analysis of apoptosis induced by other stimuli on 3DO transfected clones, wherein in FIG. 7A is shown the results obtained with withdrawn trophic factor; in FIG. 7B is shown the results obtained with u.v. irradiation (100 J/m2); in FIG. 7C is shown the results obtained with DEX ([…]); and in FIG. 7D is shown the results obtained with monoclonal (mAb) anti-Fas antibody (5 μg/ml). All groups were treated for 20 hours. Cell death was measured as indicated above with respect to FIG. 6, and as noted herein below. […]
Aliquots of2 ml transfected clones (1×10^6/ml) were incubated with DEX or subjected to deprivation conditions (1% FCS). The apoptosis was evaluated after 20 hours as described below.
Apoptosis was measured by flow cytometry as described elsewhere (Nicoletti et al., 1991). […] The PI-fluorescence of individual nuclei was measured by flow cytometry using standard FACScan equipment (Becton Dickinson). […] A 560 nm dichroid mirror (DM 570) and a 600 nm band pass filter (band width 35 nm) were used to collect the red fluorescence due to PI DNA staining. The data were recorded in logarithmic scale in a Hewlett Packard (HP 9000, model 310; Palo Alto, Calif.) computer. The percentage of apoptotic cell nuclei (sub-diploid DNA peak in the DNA fluorescence histogram) was calculated with specific FACScan research software (Lysis II).

The test system of experiment [3] is 3DO transfected clones. Description: Anti-CD3-induced apoptosis of 3DO transfected clones (propidium iodide flow cytometry). Particulars: GILR expression in transfected 3DO clones. The protocol: Thymocytes were obtained from 3 to 5-week-old C3H/HeN mice purchased from Charles River (Milan, Italy). The cell suspensions were washed, filtered and adjusted to a concentration of 8×10^6 cells/ml in complete medium. The cells were incubated at 37° C. alone or with 100 nM/l DEX (Sigma, St. Louis, Mo.) for 3 hrs. A CD3+, CD4+, CD2+, CD44+ sub-line obtained in our laboratory of the OVA-specific mouse hybridoma T cell line (3DO; Ayroldi et al., 1995) maintained in suspension in RPMI 1640 medium supplemented with 10% FCS and […] HEPES buffer was used for transfection experiments. […]
The GILR cDNA coding sequence (874 bp—see FIG. 2) was cloned into a pcDNA3 plasmid (Invitrogen) for expression in mammalian cells. […] These surviving cells were considered clones and analyzed in an RNase protection assay for the expression of exogenous GILR (Vito et al., 1996). […]
Apoptosis was measured by flow cytometry as described elsewhere (Nicoletti et al., 1991). […] The PI-fluorescence of individual nuclei was measured by flow cytometry using standard FACScan equipment (Becton Dickinson). […] A 560 nm dichroid mirror (DM 570) and a 600 nm band pass filter (band width 35 nm) were used to collect the red fluorescence due to PI DNA staining. The data were recorded in logarithmic scale in a Hewlett Packard (HP 9000, model 310; Palo Alto, Calif.) computer. […]
On the technique in general: A flow cytometer gives signals particle by particle.

For a further experiment, the system named is IL-2R. Description: IL-2R (CD25) expression on 3DO transfected clones (flow cytometry). Particulars: overexpression of GILR in transfected 3DO clones. The protocol: For that purpose, GILR transfected clones were activated and analyzed for apoptosis and expression of activation markers, like the interleukin-2 receptor (IL-2R). In particular, after stimulation with cross-linked anti-CD3 monoclonal antibodies (1 μg/ml), GILR-transfected and empty vector clones (used as control) were stained with anti-IL-2R monoclonal antibody (CD25) or treated for propidium iodide labeling for apoptosis evaluation. The supernatants from control and anti-CD3-treated clones were used for IL-2 detection in an ELISA assay.

B1: GILR: Glucocorticoid Induced Leucine-zipper family Related protein, 137 amino acids (mouse), overexpressed from GILR cDNA in pcDNA3 (protein)
chain: MNTEMYQTPMEVAVYQLHNFSTSFFSSLLGGDVVSVKLDNSASGASVVALDNKIEQAMDLVKNHLMYAVREEVEVLKEQIRELLEKNSQLERENTLLKTLASPEQLEKFQSRLSPEEPAPEAPETPETPEAPGGSAV
Regarding B1, in experiment [1], the Fas/Fas-L expression result is listed as “inhibits”. In the experiment with 3DO transfected clones [2], the “apoptosis induced by DEX, UV irradiation, starvation or crosslinked anti-Fas monoclonal antibody” value is recorded as “does not counteract”. In the experiment with 3DO transfected clones [3], the TCR/CD3-activated apoptosis entry is given as “inhibits”. Besides, the “anti-CD3 induced activation (IL-2R, IL-2)” value in the experiment on IL-2R was “inhibits”.
